Results reported in patent US20160058848A1.

Columns and labels:
[1] = molecular target: human corin mutant K317E (human) (UniProt Q9Y5Q5); assay: cell-based or functional assay
[2] = molecular target: human corin mutant S472G (human) (UniProt Q9Y5Q5); assay: cell-based or functional assay
[3] = molecular target: human corin mutant R539C (human) (UniProt Q9Y5Q5); assay: cell-based or functional assay
[4] = molecular target: T1, human corin variant T555I/Q568P, Q9Y5Q5
T1 chain: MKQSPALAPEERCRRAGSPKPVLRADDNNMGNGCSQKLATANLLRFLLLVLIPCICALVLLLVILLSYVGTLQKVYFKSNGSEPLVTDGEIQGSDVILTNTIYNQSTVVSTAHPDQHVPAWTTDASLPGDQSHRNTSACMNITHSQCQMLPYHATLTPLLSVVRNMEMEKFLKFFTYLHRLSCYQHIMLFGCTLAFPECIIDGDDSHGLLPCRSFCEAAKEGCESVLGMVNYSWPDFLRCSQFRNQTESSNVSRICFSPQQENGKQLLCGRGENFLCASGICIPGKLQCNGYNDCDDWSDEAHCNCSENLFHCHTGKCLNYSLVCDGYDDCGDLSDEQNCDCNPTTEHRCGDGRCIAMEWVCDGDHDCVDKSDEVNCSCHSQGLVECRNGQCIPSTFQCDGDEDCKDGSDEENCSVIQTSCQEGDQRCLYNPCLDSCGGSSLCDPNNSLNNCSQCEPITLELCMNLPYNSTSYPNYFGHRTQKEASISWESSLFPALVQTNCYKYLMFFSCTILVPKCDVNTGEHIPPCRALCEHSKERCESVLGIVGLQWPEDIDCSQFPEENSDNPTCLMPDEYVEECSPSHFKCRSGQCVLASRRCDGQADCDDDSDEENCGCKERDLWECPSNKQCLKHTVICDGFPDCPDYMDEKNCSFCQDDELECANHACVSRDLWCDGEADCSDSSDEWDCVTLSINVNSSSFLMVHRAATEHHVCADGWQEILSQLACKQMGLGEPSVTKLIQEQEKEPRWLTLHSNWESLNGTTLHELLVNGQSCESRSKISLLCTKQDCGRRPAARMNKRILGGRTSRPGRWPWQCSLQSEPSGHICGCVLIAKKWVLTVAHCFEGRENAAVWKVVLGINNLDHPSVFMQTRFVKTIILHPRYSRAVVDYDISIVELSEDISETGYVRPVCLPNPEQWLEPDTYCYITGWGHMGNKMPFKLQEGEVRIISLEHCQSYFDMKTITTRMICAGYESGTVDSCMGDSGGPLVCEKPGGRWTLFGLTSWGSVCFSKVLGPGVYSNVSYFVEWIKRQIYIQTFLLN

[5] = molecular target: T2, human corin variant Q568P, Q9Y5Q5
T2 chain: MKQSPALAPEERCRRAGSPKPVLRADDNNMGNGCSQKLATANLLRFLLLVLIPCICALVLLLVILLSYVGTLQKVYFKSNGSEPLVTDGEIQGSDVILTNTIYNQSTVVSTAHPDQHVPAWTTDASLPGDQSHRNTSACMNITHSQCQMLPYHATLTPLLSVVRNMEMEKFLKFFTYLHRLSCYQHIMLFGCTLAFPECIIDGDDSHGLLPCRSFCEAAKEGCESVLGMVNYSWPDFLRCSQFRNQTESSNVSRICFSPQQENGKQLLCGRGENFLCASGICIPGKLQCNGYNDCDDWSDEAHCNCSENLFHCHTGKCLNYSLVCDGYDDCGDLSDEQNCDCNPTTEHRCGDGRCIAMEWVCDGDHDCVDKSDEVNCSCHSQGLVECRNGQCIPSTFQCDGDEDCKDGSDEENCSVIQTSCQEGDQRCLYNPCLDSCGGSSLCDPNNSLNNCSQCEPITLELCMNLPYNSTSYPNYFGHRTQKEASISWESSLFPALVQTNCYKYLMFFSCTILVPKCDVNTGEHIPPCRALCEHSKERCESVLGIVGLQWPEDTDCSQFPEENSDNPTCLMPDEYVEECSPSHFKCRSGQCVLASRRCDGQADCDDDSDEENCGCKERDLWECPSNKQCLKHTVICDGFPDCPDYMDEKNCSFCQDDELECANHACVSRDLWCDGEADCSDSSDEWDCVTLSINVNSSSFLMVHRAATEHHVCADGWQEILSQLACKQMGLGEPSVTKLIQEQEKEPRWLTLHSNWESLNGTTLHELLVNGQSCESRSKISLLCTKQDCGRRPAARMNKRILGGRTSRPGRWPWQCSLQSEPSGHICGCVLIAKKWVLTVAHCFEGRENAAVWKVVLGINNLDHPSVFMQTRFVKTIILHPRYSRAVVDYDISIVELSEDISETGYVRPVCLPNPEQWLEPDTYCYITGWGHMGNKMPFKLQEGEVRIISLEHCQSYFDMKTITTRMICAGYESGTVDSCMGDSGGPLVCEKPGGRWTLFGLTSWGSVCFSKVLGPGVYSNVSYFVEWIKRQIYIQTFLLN

B1: recombinant human proprotein convertase subtilisin/kexin-6 (PCSK6) with a C-terminal flag tag (protein)
chain: QVRSDPQALYFNDPIWSNMWYLHCGDKNSRCRSEMNVQAAWKRGYTGKNVVVTILDDGIERNHPDLAPNYDSYASYDVNGNDYDPSPRYDASNENKHGTRCAGEVAASANNSYCIVGIAYNAKIGGIRMLDGDVTDVVEAKSLGIRPNYIDIYSASWGPDDDGKTVDGPGRLAKQAFEYGIKKGRQGLGSIFVWASGNGGREGDYCSCDGYTNSIYTISVSSATENGYKPWYLEECASTLATTYSSGAFYERKIVTTDLRQRCTDGHTGTSVSAPMVAGIIALALEANSQLTWRDVQHLLVKTSRPAHLKASDWKVNGAGHKVSHFYGFGLVDAEALVVEAKKWTAVPSQHMCVAASDKRPRSIPLVQVLRTTALTSACAEHSDQRVVYLEHVVVRTSISHPRRGDLQIYLVSPSGTKSQLLAKRLLDLSNEGFTNWEFMTVHCWGEKAEGQWTLEIQDLPSQVRNPEKQGKLKEWSLILYGTAEHPYHTFSAHQSRSRMLELSAPELEPPKAALSPSQVEVPEDEEDYTAQSTPGSANILQTSVCHPECGDKGCDGPNADQCLNCVHFSLGSVKTSRKCVSVCPLGYFGDTAARRCRRCHKGCETCSSRAATQCLSCRRGFYHHQEMNTCVTLCPAGFYADESQKNCLKCHPSCKKCVDEPEKCTVCKEGFSLARGSCIPDCEPGTYFDSELIRCGECHHTCGTCVGPGREECIHCAKNFHFHDWKCVPACGEGFYPEEMPGLPHKVCRRCDENCLSCAGSSRNCSRCKTGFTQLGTSCITNHTCSNADETFCEMVKSNRLCERKLFIQFCCRTCLLAG
Which reduction in PCSK6-mediated corin activation compared with WT corin (Western blot, densitometry) (% reduction vs WT corin) [1] does the source give for B1 here?
The reduction in PCSK6-mediated corin activation compared with WT corin (Western blot, densitometry) (% reduction vs WT corin) was 39.

What about the reduction in PCSK6-mediated corin activation compared with WT corin (Western blot, densitometry) (% reduction vs WT corin) [2] of the same binder?
The reduction in PCSK6-mediated corin activation compared with WT corin (Western blot, densitometry) (% reduction vs WT corin) was 99.

What about the reduction in PCSK6-mediated corin activation compared with WT corin (Western blot, densitometry) (% reduction vs WT corin) [3] of the same binder?
Its reduction in PCSK6-mediated corin activation compared with WT corin (Western blot, densitometry) (% reduction vs WT corin) is 62.

What about the “PCSK6-mediated activation cleavage (Western blot, densitometry)” value [4] of the same binder?
The value was “PCSK6-mediated activation cleavage was detected in corin WT and variants T555I or Q568P, but not variant T555I/Q568P”.

What about the “PCSK6-mediated activation cleavage (Western blot, densitometry)” value [5] of the same binder?
The value was “PCSK6-mediated activation cleavage was detected in corin WT and variants T555I or Q568P, but not variant T555I/Q568P”.
